In patent publication US5739281:

Molecular target: natural affinity purified heavy chain class I K^d molecules
Experiment: binding to natural class I heavy chain molecules, format not given (follows the binding inhibition experiment)

- affinity, times lower than that of the (human) β2-microglobulin: 5 times lower
Substance: Recombinant murine β2-microglobulin
